Assay results as given in PMC13469128.

Key:
[1] = biological target: CD47 (Homo sapiens) (UniProt Q08722); conditions: cited from earlier work
[2] = biological target: CD47 (Mus musculus) (UniProt Q61735); conditions: cited from earlier work
[3] = biological target: human CD47 on cells (human (endogenous in HCT116, MDA-MB-468, OVCAR3, HUVEC, C5120)) (UniProt Q08722)

SIRPα-Fc, sequence (P78324 31-373): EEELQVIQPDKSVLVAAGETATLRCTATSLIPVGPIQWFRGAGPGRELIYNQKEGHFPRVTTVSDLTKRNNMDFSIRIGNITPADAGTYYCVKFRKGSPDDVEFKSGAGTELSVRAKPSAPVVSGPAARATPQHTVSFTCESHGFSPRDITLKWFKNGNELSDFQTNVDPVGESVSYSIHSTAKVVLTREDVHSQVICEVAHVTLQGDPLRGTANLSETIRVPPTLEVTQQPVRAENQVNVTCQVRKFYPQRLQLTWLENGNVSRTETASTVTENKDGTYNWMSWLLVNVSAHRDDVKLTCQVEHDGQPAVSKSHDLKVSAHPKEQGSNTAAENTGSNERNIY
UniProt Q61735, sequence (Q61735 19-303): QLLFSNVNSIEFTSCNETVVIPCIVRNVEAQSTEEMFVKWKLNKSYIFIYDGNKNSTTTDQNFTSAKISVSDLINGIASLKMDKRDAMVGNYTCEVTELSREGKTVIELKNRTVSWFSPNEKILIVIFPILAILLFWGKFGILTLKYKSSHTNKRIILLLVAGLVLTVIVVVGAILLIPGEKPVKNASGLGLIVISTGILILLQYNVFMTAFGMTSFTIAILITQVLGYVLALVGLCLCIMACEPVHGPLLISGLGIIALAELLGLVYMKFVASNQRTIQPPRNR

Q: For SIRPα-Fc (from UniProt P78324), which Kd [1] is on record?
A: 1 nM

Q: What about the Kd [2] of the same substance?
A: 58 nM

Q: Which macrophage ADCP on-chip of MDA-MB-468 cells, fold increase over the background; AdV delivery of SIRPα-Fc alone (blocks the CD47-SIRPα axis) [3] does the source give for SIRPα-Fc fusion protein here?
A: 1.7 fold
